Reference: US20250368975, “COMPOSITIONS, METHODS AND SYSTEMS FOR HIGH-FIDELITY CAS13A VARIANTS WITH IMPROVED SPECIFICITY” (University of Rochester, published 2025)

Biological target: T1, LbuCas13a R377A (Leptotrichia buccalis, UniProt C7NBY4 SEQ:1-1159)
T1 chain: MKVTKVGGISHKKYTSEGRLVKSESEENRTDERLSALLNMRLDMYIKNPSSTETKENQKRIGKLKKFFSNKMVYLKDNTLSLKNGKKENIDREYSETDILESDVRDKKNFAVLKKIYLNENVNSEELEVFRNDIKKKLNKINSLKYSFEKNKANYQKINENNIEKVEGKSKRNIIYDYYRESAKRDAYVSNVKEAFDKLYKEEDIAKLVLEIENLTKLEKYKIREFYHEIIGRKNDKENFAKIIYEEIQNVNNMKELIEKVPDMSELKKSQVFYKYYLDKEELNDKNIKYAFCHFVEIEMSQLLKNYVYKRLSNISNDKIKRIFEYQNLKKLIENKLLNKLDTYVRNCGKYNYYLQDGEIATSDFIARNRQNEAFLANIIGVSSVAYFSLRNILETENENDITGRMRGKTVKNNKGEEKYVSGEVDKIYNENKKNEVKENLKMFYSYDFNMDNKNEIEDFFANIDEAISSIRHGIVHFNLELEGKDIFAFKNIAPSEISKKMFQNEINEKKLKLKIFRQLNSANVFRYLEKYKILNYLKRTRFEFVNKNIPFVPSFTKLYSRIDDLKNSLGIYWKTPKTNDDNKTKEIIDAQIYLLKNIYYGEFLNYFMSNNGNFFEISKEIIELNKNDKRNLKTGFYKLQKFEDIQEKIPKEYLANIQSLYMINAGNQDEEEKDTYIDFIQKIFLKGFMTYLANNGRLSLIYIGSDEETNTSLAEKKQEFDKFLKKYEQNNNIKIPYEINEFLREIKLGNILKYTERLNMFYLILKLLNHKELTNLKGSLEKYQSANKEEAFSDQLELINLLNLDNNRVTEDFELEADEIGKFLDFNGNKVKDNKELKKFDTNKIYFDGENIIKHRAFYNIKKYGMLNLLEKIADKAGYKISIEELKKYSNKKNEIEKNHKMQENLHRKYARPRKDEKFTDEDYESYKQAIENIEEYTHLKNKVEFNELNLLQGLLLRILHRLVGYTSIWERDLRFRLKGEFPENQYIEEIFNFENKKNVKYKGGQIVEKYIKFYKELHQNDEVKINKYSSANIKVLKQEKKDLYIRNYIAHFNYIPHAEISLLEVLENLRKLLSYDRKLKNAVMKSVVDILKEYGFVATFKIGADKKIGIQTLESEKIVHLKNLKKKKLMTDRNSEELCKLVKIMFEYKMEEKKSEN
Test: cleavage_in_vitro; 10 nM; decreased about 50% vs WT; inactive at 100 pM
Details: tags: His6-MBP-TEV (cleaved); hairpin in direct repeat

B1: del crRNA 20 nt spacer ; perfect match target RNA (ssRNA ; ssRNA)
RNA 1: GGCCACCCCAAAAAUGAAGGGGACUAAAACACAAAUCUAUCUGAAUAAAC
RNA 2: GGGAAACCAAGAAGAAGAGUUUAUUCAGAUAGAUUUGUCACAGCAGAAGCCCACAC
activity: ~50 % of WT
